The results in this text go back to patent publication US20240261333A1 (published 2024).

Common to all, as to test: co-IP with anti-FLAG, mass spectrometry; lysate of cells with N-FLAG B3GNT2
One experiment deals with RPL26 (human, UniProt P61254 1-145). The protocol: (§1) Cells were plated in 10-cm cell culture dishes and grown to 60-80% confluency. For each condition, two biological replicates were harvested for co-IP. Cells were washed with PBS and 4 mL of lysis buffer (20 mM HEPES, 1% Triton X-100, 150 mM NaCl, 1 mM EDTA, and 10% glycerol) containing protease inhibitor cocktail was added. Cells were scraped and lysate was incubated at 4° C. under rotary agitation for 1 h. Lysate was centrifuged at 14,000×g for 10 min at 4° C. Supernatant was transferred to a new tube and an aliquot was taken as the input. […] For Western blots, 10 μg/mL Chicken Anti-FLAG (Aves labs ET-DY100) and IgY control (R&D Systems AB-101-C) antibodies were biotinylated (Thermo Fisher Scientific 90407) and added to the respective conditions. Lysates with antibodies were incubated at 4° C. under rotary agitation overnight. For each mL of lysate, 50 μL of Pierce Protein A/G Magnetic Beads (Mass spectrometry; Thermo Fisher Scientific 88803) or Pierce Streptavidin Magnetic Beads (Western blot; Thermo Fisher Scientific 88817) was washed twice with lysis buffer. Lysates with antibodies were added to the beads and incubated at 4° C. under rotary agitation for 4 h. Beads were washed with lysis buffer 3 times and resuspended in lysis buffer for storage.
(§2) Magnetic beads were resuspended in 100 mM Tris pH 7.8, reduced, alkylated and digested with trypsin at 37° ° C. overnight. This solution was subjected to solid phase extraction to concentrate the peptides and remove unwanted reagents followed by injection onto a Shimadzu HPLC with fraction collector. Eight fractions were collected and after concentration were injected on a Waters NanoAcquity HPLC equipped with a self-packed Aeris 3 μm C18 analytical column 0.075 mm by 20 cm, (Phenomenex). Peptides were eluted using standard reverse-phase gradients. The effluent from the column was analyzed using a Thermo Orbitrap Elite mass spectrometer (nanospray configuration) operated in a data dependent manner for 54 minutes. The resulting fragmentation spectra were correlated against the known database using Proteome Discover 1.4 (Thermo Fisher Scientific).

In another experiment the target is T1, GANAB (human, UniProt Q14697 29-944).
T1 construct: also called NP_938148.1 (+1)
T1 sequence (looked up): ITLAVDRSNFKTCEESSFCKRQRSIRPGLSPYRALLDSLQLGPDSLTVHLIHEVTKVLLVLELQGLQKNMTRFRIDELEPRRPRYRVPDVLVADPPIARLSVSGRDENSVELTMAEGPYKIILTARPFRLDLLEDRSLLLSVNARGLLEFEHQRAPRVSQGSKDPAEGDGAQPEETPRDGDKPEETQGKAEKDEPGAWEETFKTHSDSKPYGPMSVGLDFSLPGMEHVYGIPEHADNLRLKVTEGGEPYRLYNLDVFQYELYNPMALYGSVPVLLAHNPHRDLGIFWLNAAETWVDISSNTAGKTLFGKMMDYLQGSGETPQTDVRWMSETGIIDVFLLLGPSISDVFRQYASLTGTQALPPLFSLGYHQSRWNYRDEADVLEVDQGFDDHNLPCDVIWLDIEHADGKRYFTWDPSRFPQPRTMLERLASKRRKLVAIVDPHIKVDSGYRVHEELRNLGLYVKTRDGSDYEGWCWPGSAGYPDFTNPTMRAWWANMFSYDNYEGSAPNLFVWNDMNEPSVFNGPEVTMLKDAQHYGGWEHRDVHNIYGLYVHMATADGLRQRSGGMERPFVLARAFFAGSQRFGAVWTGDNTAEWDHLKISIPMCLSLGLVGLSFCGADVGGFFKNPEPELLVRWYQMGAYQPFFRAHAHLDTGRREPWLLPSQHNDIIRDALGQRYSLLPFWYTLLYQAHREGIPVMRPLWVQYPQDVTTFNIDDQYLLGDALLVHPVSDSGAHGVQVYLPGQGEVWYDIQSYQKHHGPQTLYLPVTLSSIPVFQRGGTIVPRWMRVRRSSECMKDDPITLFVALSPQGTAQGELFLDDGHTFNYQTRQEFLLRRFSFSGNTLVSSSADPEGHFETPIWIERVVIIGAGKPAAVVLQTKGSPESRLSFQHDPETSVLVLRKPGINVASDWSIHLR
The protocol:
as §1, §2

A further experiment addresses T2, TOR1AIP2 (human, UniProt Q8NFQ8 2-470).
T2 construct: also called NP_001336864.1 (+1)
As to the method:
as §1, §2

Another experiment addresses T3, STAU2 (human, UniProt Q9NUL3 1-570, limits assumed).
T3 construct: also called NP_001157852.1 (+4)
T3 sequence (looked up): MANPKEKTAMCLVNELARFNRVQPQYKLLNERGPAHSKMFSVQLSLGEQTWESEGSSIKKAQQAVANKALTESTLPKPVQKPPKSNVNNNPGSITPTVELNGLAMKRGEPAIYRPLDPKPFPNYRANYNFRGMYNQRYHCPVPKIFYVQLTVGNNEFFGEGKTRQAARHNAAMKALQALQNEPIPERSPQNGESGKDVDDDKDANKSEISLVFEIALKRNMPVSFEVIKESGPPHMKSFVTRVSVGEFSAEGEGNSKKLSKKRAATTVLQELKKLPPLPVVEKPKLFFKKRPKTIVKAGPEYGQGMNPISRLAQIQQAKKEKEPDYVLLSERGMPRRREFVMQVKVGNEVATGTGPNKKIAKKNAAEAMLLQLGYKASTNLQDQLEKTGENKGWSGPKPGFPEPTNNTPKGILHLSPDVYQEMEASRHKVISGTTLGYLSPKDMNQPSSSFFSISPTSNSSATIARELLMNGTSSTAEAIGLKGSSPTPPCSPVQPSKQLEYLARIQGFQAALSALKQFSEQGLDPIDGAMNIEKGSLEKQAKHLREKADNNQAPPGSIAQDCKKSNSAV
As to the method: as §1, §2

A further experiment has as its target T4, GAPDH (human, UniProt P04406 2-335, limits assumed).
T4 construct: also called NP_001344872.1 (+1)
The protocol:
as §1, §2

For a further experiment, the target named is T5, GALNT2 (human, UniProt Q10471 1-571, limits assumed).
T5 construct: also called NP_001278795.1 (+1)
As to the method: as §1, §2

Another experiment addresses T6, HADHA (human, UniProt P40939 37-763).
T6 construct: also called NP_000173.2
As to the method: as §1, §2

The target of a further experiment is RPS4X (human, UniProt P62701 2-263). As to the method: as §1, §2

T5 sequence (Q10471 whole entry): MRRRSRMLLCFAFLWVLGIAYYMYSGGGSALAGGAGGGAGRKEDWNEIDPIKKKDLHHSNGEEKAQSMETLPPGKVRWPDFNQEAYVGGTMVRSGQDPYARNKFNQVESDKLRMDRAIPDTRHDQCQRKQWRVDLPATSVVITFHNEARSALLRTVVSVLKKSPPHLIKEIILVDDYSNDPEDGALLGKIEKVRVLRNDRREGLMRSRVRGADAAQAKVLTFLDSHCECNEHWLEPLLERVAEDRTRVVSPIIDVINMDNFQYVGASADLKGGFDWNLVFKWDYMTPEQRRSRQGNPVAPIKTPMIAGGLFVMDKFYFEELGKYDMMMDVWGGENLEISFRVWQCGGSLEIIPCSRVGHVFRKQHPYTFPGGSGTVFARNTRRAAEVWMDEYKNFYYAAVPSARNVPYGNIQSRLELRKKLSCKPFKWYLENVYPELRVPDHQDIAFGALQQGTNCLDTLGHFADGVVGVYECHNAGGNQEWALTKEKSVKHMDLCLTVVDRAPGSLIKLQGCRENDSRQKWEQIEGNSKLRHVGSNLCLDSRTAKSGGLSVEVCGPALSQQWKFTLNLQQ
T4 sequence (P04406 2-335 limits assumed): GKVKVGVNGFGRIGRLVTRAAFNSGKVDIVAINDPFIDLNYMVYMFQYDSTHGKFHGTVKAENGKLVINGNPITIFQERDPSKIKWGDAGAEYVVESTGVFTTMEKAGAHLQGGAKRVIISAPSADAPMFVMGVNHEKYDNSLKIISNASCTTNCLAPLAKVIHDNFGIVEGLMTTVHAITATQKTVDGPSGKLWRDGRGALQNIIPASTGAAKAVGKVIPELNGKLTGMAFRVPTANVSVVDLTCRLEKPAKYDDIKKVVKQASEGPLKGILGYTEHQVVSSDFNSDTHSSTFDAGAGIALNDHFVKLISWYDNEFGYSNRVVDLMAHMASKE
T2 sequence (Q8NFQ8 2-470 limits assumed): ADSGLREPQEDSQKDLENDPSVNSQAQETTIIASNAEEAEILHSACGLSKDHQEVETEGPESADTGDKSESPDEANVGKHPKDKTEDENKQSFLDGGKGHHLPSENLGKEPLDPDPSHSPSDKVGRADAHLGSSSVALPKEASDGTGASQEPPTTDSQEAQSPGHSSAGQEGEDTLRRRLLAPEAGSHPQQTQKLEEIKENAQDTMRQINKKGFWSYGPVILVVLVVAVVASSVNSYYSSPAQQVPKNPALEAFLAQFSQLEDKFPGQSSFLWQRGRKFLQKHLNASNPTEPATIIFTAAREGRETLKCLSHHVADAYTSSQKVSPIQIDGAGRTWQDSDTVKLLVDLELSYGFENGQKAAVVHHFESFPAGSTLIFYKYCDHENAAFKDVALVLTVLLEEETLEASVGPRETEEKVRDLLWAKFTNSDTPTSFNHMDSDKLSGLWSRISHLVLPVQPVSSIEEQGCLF
T6 sequence (P40939 37-763 limits assumed): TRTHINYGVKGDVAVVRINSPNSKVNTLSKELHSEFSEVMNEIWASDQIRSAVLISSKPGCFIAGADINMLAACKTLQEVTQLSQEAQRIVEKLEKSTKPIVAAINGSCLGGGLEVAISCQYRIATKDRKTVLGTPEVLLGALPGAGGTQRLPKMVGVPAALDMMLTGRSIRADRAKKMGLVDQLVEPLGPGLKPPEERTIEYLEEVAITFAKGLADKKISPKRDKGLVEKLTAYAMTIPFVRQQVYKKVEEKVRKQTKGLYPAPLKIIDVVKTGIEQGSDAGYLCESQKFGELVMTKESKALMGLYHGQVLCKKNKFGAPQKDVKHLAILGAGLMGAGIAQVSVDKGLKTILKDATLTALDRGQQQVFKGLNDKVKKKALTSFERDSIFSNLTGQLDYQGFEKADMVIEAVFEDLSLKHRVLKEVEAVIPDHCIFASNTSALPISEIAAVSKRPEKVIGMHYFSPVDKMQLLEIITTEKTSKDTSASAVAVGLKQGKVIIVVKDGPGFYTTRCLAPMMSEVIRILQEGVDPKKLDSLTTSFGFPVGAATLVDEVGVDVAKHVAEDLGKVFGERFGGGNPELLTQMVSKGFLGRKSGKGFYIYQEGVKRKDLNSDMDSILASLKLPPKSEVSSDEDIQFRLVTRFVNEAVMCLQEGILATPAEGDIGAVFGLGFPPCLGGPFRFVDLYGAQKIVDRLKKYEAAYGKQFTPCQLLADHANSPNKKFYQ

B1: N-terminal FLAG tagged B3GNT2 (enzyme, human, UniProt Q9NY97 1-397, looked up)
chain: MSVGRRRIKLLGILMMANVFIYFIMEVSKSSSQEKNGKGEVIIPKEKFWKISTPPEAYWNREQEKLNRQYNPILSMLTNQTGEAGRLSNISHLNYCEPDLRVTSVVTGFNNLPDRFKDFLLYLRCRNYSLLIDQPDKCAKKPFLLLAIKSLTPHFARRQAIRESWGQESNAGNQTVVRVFLLGQTPPEDNHPDLSDMLKFESEKHQDILMWNYRDTFFNLSLKEVLFLRWVSTSCPDTEFVFKGDDDVFVNTHHILNYLNSLSKTKAKDLFIGDVIHNAGPHRDKKLKYYIPEVVYSGLYPPYAGGGGFLYSGHLALRLYHITDQVHLYPIDDVYTGMCLQKLGLVPEKHKGFRTFDIEEKNKNNICSYVDLMLVHSRKPQEMIDIWSQLQSAHLKC
notes: Bait of the co-IP; pulled down with mouse anti-FLAG (Millipore Sigma F3165) from cell lysate; also called N-FLAG B3GNT2; N-term FLAG; not shown: N-terminal FLAG tag
Consider B1, for which the “co-IP mass spectrometry count” value was determined as 7 with RPL26; 0 with GANAB; 0 with TOR1AIP2; 0 with STAU2; 18 in the experiment with GAPDH; 0 with GALNT2. For the same molecule, the “co-IP mass spectrometry count” value in the experiment with HADHA was found to be 0; in the experiment with RPS4X, 14.
